In article PMC11544243 (Nature Communications, 2024):
Blank lines part the entries; values can stand above or below the molecule they belong to.

Assays:
Test in all cases: SEC-MALS
[1] = molecular target: MBP-BICD-1 CTF (C. elegans)
Trx-EAT-17F (C. elegans) = Trx-EAT-17F (C. elegans) (UniProt S6F527)
SEC-MALS = molecular target: the molecule itself

stoichiometry N [1]: 2
stoichiometry N (BICD-1 CTF per EAT-17F (printed as 2:2)) (Trx-EAT-17F (C. elegans)): 1
Molecule: MBP-BICD-1 CTF (domain or fragment)

B1: Trx-EAT-17F (natural protein, C. elegans, UniProt S6F527-6 1-396, looked up)
chain: MNSDVHRKLEGAYETIRELSSARRDNIMDTGTQVDDTSMIEHIHSLQQELIEAHTRQADSENTLRDAKLRVSELEMANKRLLENEPSEDVAGLQEELISVKMREAESSLALKEMRQRLAELEQHWAKYVHVRAFDPSSASIEKESTSEAHSTQQQPSPPLTSARARLAKITASLIGGSTEETDNCISVRELEDQLMGVRIKEADTLAELKEMRQKVMELETQNHVCTNQLKRQDEEMKRVREDSEVLVKKRKELEDQLKDEKEKLDNKESEFNEGRINDRLKYSEAMQTIQDLQSSISQLELKKAEKWTQNQLRGSSVCDLDEESNSHGSICSNVDHLSLASDEMNALLADMTVRIPTLDDLAEEGSATETDELRPKELNDGNDTTDSGVQLSDSH
stoichiometry N (SEC-MALS): 2
